Assay results reported in publication PMC4029802, “PKCε Promotes HuD-Mediated Neprilysin mRNA Stability and Enhances Neprilysin-Induced Aβ Degradation in Brain Neurons”.

Biological target: HuD (UniProt P26378 1-385)
Test: EMSA; 2 uM HuD, 125 nM probe; complex specificity confirmed with unlabeled competitor oligoriboprobe; 10 mM HEPES pH 7.3, 20 mM KCl, 1 mM MgCl2, 1 mM DTT, 5% glycerol, 2 ug/ml tRNA, 30 min, room temperature; 6% native PAGE, 0.5X TBE
Conditions: protein: commercial; label: 3'-biotin

HuD, sequence (P26378 whole entry): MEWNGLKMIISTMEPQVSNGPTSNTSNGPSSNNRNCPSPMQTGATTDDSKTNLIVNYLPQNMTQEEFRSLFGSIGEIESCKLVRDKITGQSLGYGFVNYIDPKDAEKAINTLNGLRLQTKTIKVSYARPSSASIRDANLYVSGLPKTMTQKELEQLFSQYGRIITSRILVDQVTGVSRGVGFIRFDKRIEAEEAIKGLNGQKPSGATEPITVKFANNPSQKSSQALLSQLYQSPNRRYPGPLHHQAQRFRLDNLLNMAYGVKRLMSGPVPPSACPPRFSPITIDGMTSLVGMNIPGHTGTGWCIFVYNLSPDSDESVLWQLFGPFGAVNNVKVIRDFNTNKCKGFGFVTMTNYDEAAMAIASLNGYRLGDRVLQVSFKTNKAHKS

B1: NEP mRNA 3'-UTR ARE oligoribonucleotide (ssRNA)
RNA: UUCUGUGAUCAUUUAUUUUAAGCACUC
binding result: binds
